Values of other authors in paper PMC10105536.
Values joined by “and” are separate entries in the source; they are usually repeats but may differ in a detail not shown here. Equal values may be shown once.

Target: EGFR (Homo sapiens) (UniProt P00533)

- Kd: 0.3 nM and 2 nM
Substance: EGF (from UniProt P01133)
